{"source": "the nanobody polyreactivity screen of Harvey et al. (2022)"}
{"experiment": "yeast display, Sf9 membrane polyspecificity reagent, FACS + sequencing; frameworks hold sequencing errors", "in_short": "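After 36–48 hours of galactose induction, yeast (Saccharomyces cerevisiae BJ5465) displaying a synthetic nanobody library were stained at 4 °C for 1 hour with 10% biotinylated, detergent-solubilized Sf9 membrane reagent. Streptavidin microbeads enriched the stained cells before FACS sorting into low and high (top ~1%) gates on anti-HA and streptavidin fluorescence. Each clone's polyreactivity label reflects its gate of origin.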"}
{"sequence": "QVQLVESGGGLVQAGGSLRLSCAASGGIIDWYVKGWYRQAPGTERELVAAISYKGGSTYYADSVKGRFTISRDYAKTTGYFQMNSLKPEETAVYDCAAGVTSPYRYVWYDYWGQGTQVTVSS", "polyreactivity (PSR sort gate)": "low polyreactivity"}
{"sequence": "QVQLVESGGGLVQAGGSLRLSCAASGGIIGAYVMGWYIQAAGKERELVAAISSGGDTNYADTVKGRFTISRDNAKNTVYIQMNSQKPEDTAVSYCAKDPYWTELYPSGDYWGQGTQVTVSS", "polyreactivity (PSR sort gate)": "low polyreactivity"}
{"sequence": "QVQLVESGGGLVQAGGSLRLSCAASGGILRGYAMGWYRQAPGKERELVAAISRGGRTNYADSVKGRFTISRDNAKNTVYLQMNSLKPEDTAVYYCTALSAFQVDNYDYWGQGTQVTVSS", "polyreactivity (PSR sort gate)": "high polyreactivity"}
{"sequence": "QVQLVESGGGLVQAGGSLRLSCAASGGILSDYAMGWYRQAPGKERELVAAITISGGRTNYADSVKGRITISRDNAKITVYLQMNSLKPEDTAVSYCNKLPWSVRVYKPYDYWGEGTQVTVSS", "polyreactivity (PSR sort gate)": "low polyreactivity"}
{"sequence": "QVQLVESGGGLVQAGGSLRLSCAASGGILVGYDMGWYRQAPGKERELVAAINYSGGSTNYADSVKGRFTISRDNAKNTVYLQMNSLKTEDTALYYCAARSTARYGYWGQGTQVTVSS", "polyreactivity (PSR sort gate)": "low polyreactivity"}
{"sequence": "QVQLVESGGGLVQAGGSLRLSCAASGGISLRYAMGWYRQAPGKERELVAVIDFSGASTYYADSVKGRFTISRDNAKNTVYLQMNSLKPEDTAVYYCAADSHYQDDFRIQYDYWGQGTQVTVSS", "polyreactivity (PSR sort gate)": "low polyreactivity"}
{"sequence": "QVQLVESGGGLVQAGGSLRLSCAASGGIVRSNAMGWYRQAPGKERELVAAINRSVRTYYADSVKGRFTISRDNEKNTVYLQMNSLKPEDTAVYYCAAQQGVISRGNYWGQGTQVTVSA", "polyreactivity (PSR sort gate)": "low polyreactivity"}
{"sequence": "QVQLVESGGGLVQAGGSLRLSCAASGGLFSVYAMGWYRQAPGKERELVASITVSGGSTSYADSVKGRFTISRDNAKNTVYLQMYSLKPEDTAVYYCNTDFAQAHTLSWYEDMDYWGQGTQVTVSS", "polyreactivity (PSR sort gate)": "low polyreactivity"}
{"sequence": "QVQLVESGGGLVQAGGSLRLSCAASGGMGWYRQAPGKERELVATISSVGSTNYADSVKGRFTISRDNAKNTVYLQMNRLKPEDTAVYYCNATGVQYFLYGYWGQGTQVTVSS", "polyreactivity (PSR sort gate)": "low polyreactivity"}
{"sequence": "QVQLVESGGGLVQAGGSLRLSCAASGGMGWYRQAPGKERELVATISSVGSTNYADSVKGRFTISRDNAKNTVYLQMNSLKPEDTAVYYCIATGVQYFLYGYWGQGTQVTVSS", "polyreactivity (PSR sort gate)": "low polyreactivity"}
{"sequence": "QVQLVESGGGLVQAGGSLRLSCAASGGNFWYNTMGWYRQAPWKERELVAAISDSGGRTSYADSVKGRVTISRDNANHTVYLQMNSLKPEDTAVYYCNVDYVVSRGFIYRVDYWGQGTQVTVSS", "polyreactivity (PSR sort gate)": "low polyreactivity"}
{"sequence": "QVQLVESGGGLVQAGGSLRLSCAASGGSFYPYAMGWYRQAPGKERELLAAISWSGDITYYADSVKGRFTISRDNAKNTVYLLINSLKPEDTAVYYCAAGRVVDKDPSYFREGDYWGQGTQVTVSS", "polyreactivity (PSR sort gate)": "low polyreactivity"}
{"sequence": "QVQLVESGGGLVQAGGSLRLSCAASGGTCWWYAMGWYRQAPGKEREFVAAISQRGTSTYYADSVKGRFTISRDNAKNTVYLQMNSLKPEDTAVYYCAVRAYRWRSTLGLYYWGQGTQVTVSS", "polyreactivity (PSR sort gate)": "high polyreactivity"}
{"sequence": "QVQLVESGGGLVQAGGSLRLSCAASGGTFALNAMGWYRQAPGKERELVADIDGRGGSTYYADSVKGRFTISRDNAKNTVYLQMNSLKPEVTAVYYCAARAPFLSVPSELDYWGQGTQVTVSS", "polyreactivity (PSR sort gate)": "low polyreactivity"}
{"sequence": "QVQLVESGGGLVQAGGSLRLSCAASGGTFAQYVMGWYRQAPGKERELVAAISRTGGRTYYADSVKGRFTISRDNAKNTVYLQMNSLKPEDTAVYYCARVYTSYGTPWTNYDYWGQGTQVTVSS", "polyreactivity (PSR sort gate)": "high polyreactivity"}
{"sequence": "QVQLVESGGGLVQAGGSLRLSCAASGGTFARNALGWYRQAPGKERELVAAIRGGVSTNYADSVKGRFTISRDNAKNTVYLQMNSLKPEDTAVYYCNASPPTLEGYWGQGTQVTVSS", "polyreactivity (PSR sort gate)": "low polyreactivity"}
{"sequence": "QVQLVESGGGLVQAGGSLRLSCAASGGTFDTYDMGWYRQAPGKERELVAAIRFGDGTTYYADSVKGRFTISRDNAKNTVYLQMNSLKPEDTAVYYCNTDDPGNYWYAEYDYWGQGTQVTVSS", "polyreactivity (PSR sort gate)": "low polyreactivity"}
{"sequence": "QVQLVESGGGLVQAGGSLRLSCAASGGTFEFYTMGGYRQAPGKERELVAVINASGDSTYYADSVKGRFTISRDNAKNTVYLQMNSLKPEYTAVYYCAADHRGEYDYWGQGTQVNVSS", "polyreactivity (PSR sort gate)": "low polyreactivity"}
{"sequence": "QVQLVESGGGLVQAGGSLRLSCAASGGTFEFYTMGWYRQAPGKERELVAVINASGDSTYYADSVKGRFTISRDNAKNTVYLQMNSLKPEDTAVYYCAADHRGEYDYWGQGTQVTVSS", "polyreactivity (PSR sort gate)": "low polyreactivity"}
{"sequence": "QVQLVESGGGLVQAGGSLRLSCAASGGTFENYAMGWYRQPPGKERELVAAISSGGSTNYADSVKGRFTISRDNAKNTVYLQMNSLKQEDTAVYYCARYRVWGSTGHKLFHDDYWGQGTQVTVSS", "polyreactivity (PSR sort gate)": "low polyreactivity"}
{"sequence": "QVQLVESGGGLVQAGGSLRLSCAASGGTFFAYAMGWYRQAPGERELVAAISWSGDSTYYADSVKGRFTISRDNAKNTVYLQMNSLKPEDTAVYYCAADYGFEYYYWGQGTQVTVSS", "polyreactivity (PSR sort gate)": "high polyreactivity"}
{"sequence": "QVQLVESGGGLVQAGGSLRLSCAASGGTFFGYAMGWYRQAPGKERELVAAIRWSDGRTYYADSVKGRFTISRDNAKNTVYLQMNSLKPEDTAVYDCNADDARLFDYWGQGTQVTVSS", "polyreactivity (PSR sort gate)": "low polyreactivity"}
{"sequence": "QVQLVESGGGLVQAGGSLRLSCAASGGTFGFNAMGWYRPAPGKERELVAAISSSGGRTYYADSVNGRFTISRDNAKNNVYLQMMSLKEEDTAVYYCAARVQVGGRSYVGYYYWGKGTQVTVSS", "polyreactivity (PSR sort gate)": "high polyreactivity"}
{"sequence": "QVQLVESGGGLVQAGGSLRLSCAASGGTFGFYAMGWYRQAPGKERELVAAISWSGVGTYYADSVKGRFTISRDNAKNTVYLQMNSLKPEATAVYYCAAKQYTQKISSPGTILRYYYWGQGTQVTVSS", "polyreactivity (PSR sort gate)": "high polyreactivity"}
{"sequence": "QVQLVESGGGLVQAGGSLRLSCAASGGTFGSNAMGWYRQAPGKERELVARISGRGGRTYYADSVKGRFTISRDNAKNTVYLQMNSLKPEDTAVYYCAATYIIWGQGTQVNVSS", "polyreactivity (PSR sort gate)": "high polyreactivity"}
{"sequence": "QVQLVESGGGLVQAGGSLRLSCAASGGTFGSNTMGWYRQAPGKERELVAAITSGVSTNYADSVKGRFTISRDNAKNTVYLQMNSLKPEDTAVYYCAKDLWSEEYETIITSYGFDYWGQGTQVTVSS", "polyreactivity (PSR sort gate)": "low polyreactivity"}
{"sequence": "QVQLVESGGGLVQAGGSLRLSCAASGGTFGSYAMGWYRQAPGKERELVAGITGSGGITKYADSVKGRFTISRDNAKNTVYLQMNSLKPEDTAVYYCNADYSVWYIRLSAYFTYDYWGQGTQVTVSS", "polyreactivity (PSR sort gate)": "high polyreactivity"}
{"sequence": "QVQLVESGGGLVQAGGSLRLSCAASGGTFGYYAMGWYIQAPGTERELVAAISWSGGSTYYADSVKGRFTISRDNAKNTVYLQMNSLKAEDTAVYYCNAVTRFGYVKFDYWGQGTQVTVSS", "polyreactivity (PSR sort gate)": "high polyreactivity"}
{"sequence": "QVQLVESGGGLVQAGGSLRLSCAASGGTFGYYTMGWYRPAPGKERELVSAISSGGGTDYADSVKGRFTISRDNAKNTVYLQMNSLKPEDTAVYYCNAKWLEWHYVFLPSYTMDYWGQGTQVTVSS", "polyreactivity (PSR sort gate)": "low polyreactivity"}
{"sequence": "QVQLVESGGGLVQAGGSLRLSCAASGGTFIRYAMGWYRQAPGKERELVAAISSSGGSTYYADSVKGRFTISRDNAKNTVYLQMNSLKPEDTAVYYCNGRQSRFKYDYWGQGTQVTVSS", "polyreactivity (PSR sort gate)": "high polyreactivity"}
{"sequence": "QVQLVESGGGLVQAGGSLRLSCAASGGTFISYAMGWYRQAPGKERELVAAISRGGSSTYYADSVKGRFTISRDNAKNTVYLQMNSLKPEDTAVYYCNKAYHRRDSEFGYWGQGTQVTVSS", "polyreactivity (PSR sort gate)": "high polyreactivity"}
{"sequence": "QVQLVESGGGLVQAGGSLRLSCAASGGTFKYYTMGWYRQAPGKERELVAAISSGGITYYADSVKGRFTISRDNAKNTVYLQMNSLKPEDTAVYYCNVVSYYIAGGWYEGDYWGQGTQVTVSS", "polyreactivity (PSR sort gate)": "low polyreactivity"}
{"sequence": "QVQLVESGGGLVQAGGSLRLSCAASGGTFLGNAMGWYRQAPGKERELVADITSGGSTNYADSVKGRFTISRDNAKNTVYLQMNSLKPEDTAVDYCNAEYSTSTVWEYDYWGQGTQVTVSS", "polyreactivity (PSR sort gate)": "low polyreactivity"}
{"sequence": "QVQLVESGGGLVQAGGSLRLSCAASGGTFLPNAMGWYRQAPWKERELVAAITSGGRTNYADSVKGRFTISRDNAKNTVYFQMNSLKPEDTAVYYCAARVRGYPTRPIPYYYWGQGTQVTVSS", "polyreactivity (PSR sort gate)": "high polyreactivity"}
{"sequence": "QVQLVESGGGLVQAGGSLRLSCAASGGTFNHYAMGWYRQAPGKERELVSSITNGASTYYADSVKGRFTISRDNAKNTVYLQMNSLKPEDTAVYYCAARTAVGPIRSYWYDYWGQGTQVTVSS", "polyreactivity (PSR sort gate)": "low polyreactivity"}
{"sequence": "QVQLVESGGGLVQAGGSLRLSCAASGGTFNRYAMGWYRQAPGKERELVAAISNGGGRTYYADSVKGRFTISRDNAKNTVYLQMNSLKPEDTAVYYCAKDLTRTSYRSAFDYWGQGTQVTVSS", "polyreactivity (PSR sort gate)": "high polyreactivity"}
{"sequence": "QVQLVESGGGLVQAGGSLRLSCAASGGTFNSNAMGWYRQAPGKEREFVAAISSSGGSTYYADSVKGRFTISRDNAKNTVYLQMNSLKPEDTAVYYCAKRYPYPNGRFRFGYWGQGTQVTVSS", "polyreactivity (PSR sort gate)": "high polyreactivity"}
{"sequence": "QVQLVESGGGLVQAGGSLRLSCAASGGTFNSNAMGWYRQAPGKERELVAGITSGSDTSYADSVKGRFTISRDNAKNTVYLQMNSLKPEDSAVYYCATRDYPLYGYWGQGTQVTVSS", "polyreactivity (PSR sort gate)": "low polyreactivity"}
{"sequence": "QVQLVESGGGLVQAGGSLRLSCAASGGTFPTNAMGWYRQATGKERELVAAITSSGVRTYYADSVKGRFTISRDNAKNTVYLQLNSLKPEDTAVYYCKAVTRYVRLTDDDYWGQGTQVTVSS", "polyreactivity (PSR sort gate)": "high polyreactivity"}
{"sequence": "QVQLVESGGGLVQAGGSLRLSCAASGGTFPYYAMGWYRQAPGKERELVADISGTDGSTYYADSVKGRFTISRDNAKNTVYLQMNSLKPEDTAVYYCAAEEVSWNGTGDYWGQGTQVTVSS", "polyreactivity (PSR sort gate)": "high polyreactivity"}
{"sequence": "QVQLVESGGGLVQAGGSLRLSCAASGGTFQINAMGWYIQAPGKERELVAAISRSGGSTSYADSVKGRFTISRDNAKNTVYLQMNSLKPQDTAVYYCNKRVRATAWYDYWGQGTQVTVSS", "polyreactivity (PSR sort gate)": "high polyreactivity"}
{"sequence": "QVQLVESGGGLVQAGGSLRLSCAASGGTFRAYVMGWYRQAPGKERELVAAISRSGTRTYYADSVKGRFTISRDNAKNTVYLQMNSLKPEDTAVYYCAAQAGVYYDYEYWGQGTLVTVSS", "polyreactivity (PSR sort gate)": "high polyreactivity"}
{"sequence": "QVQLVESGGGLVQAGGSLRLSCAASGGTFRKYTMGWYRQAPGKERELVAAISSTGSSTYYADSVKGRFTISRDNAKNTVYLQMNSLKPEDTAVYYCAADVFSGYYWPVLEDHWGQGTQVTVSS", "polyreactivity (PSR sort gate)": "high polyreactivity"}
